Where two headings read alike, the source gives them in different places. Each block holds one molecule with its values, some of them ahead of it. Where a SMILES comes first, the peptide text is derived from it. Bridges are numbered along the chain shown (N, C = ends). [ ]: non-standard residue; d: D form. The star is where a group is joined. AMBHA = 6-(4-(aminomethyl)benzamido)hexanoic acid linker, NCc1ccc(C(=O)NCCCCCC(=O)*)cc1; DOTA = O=C(O)CN1CCN(CC(=O)O)CCN(CC(=O)*)CCN(CC(=O)O)CC1; NOTA = O=C(O)CN1CCN(CC(=O)O)CCN(CC(=O)*)CC1; 2Nal = N[C@@H](Cc1ccc2ccccc2c1)C(=O)O; Fmoc = O=C(OCC1c2ccccc2-c2ccccc21)*; Pen = CC(C)(S)[C@H](N)C(=O)O; 4Amb = NCc1ccc(C(=O)O)cc1; Ahx = NCCCCCC(=O)O
Tests used:
CHO-hCXCR4 tumor = tested on: CHO-hCXCR4 tumor; parameters: species or system mice; conditions: mouse, in vivo
Protocol: Female athymic nude mice (6 weeks old from Envigo Laboratories, Indianapolis, Ind., USA) were subcutaneously (s.c.) injected with 10^7 CHO (right flank) and CHO-hCXCR4 (left flank) or CHO-hCXCR4 cells alone (right flank). Once tumors became palpable (100=^3 [volume=0.5×long diameter×(short diameter)^2]), approximately 15-21 days post injection (p.i.), the animals were used for the experiments. 10-15 MBq of the respective ^68Ga-labeled peptide in 100 μL of PBS were injected into the tail vein of nude mice bearing CHO-hCXCR4 tumor (groups of n=3-5). For competition studies, 8 mg/kg of unlabeled […], were co-injected with the radioligands. At 45 min p.i., blood was collected from the retro-orbital plexus (100 μl) and mice were sacrificed and the tissues and organs of interest were dissected, weighed, and counted for radioactivity in a γ-counter. Biodistribution data are given as percent injected dose per gram tissue, % ID/g (means±SD). The biodistribution of [^68Ga]DOTA-AMBHA-R54 and [^68Ga]NOTA-AMBHA-R54 was investigated in CHO-hCXCR4 bearing […] mice (45 min p.i.). […] Data are given in % ID/g and are means±SD.

in vivo = assay: in vivo; parameters: species or system mice; conditions: female, athymic nude, mouse, iv, total radioactivity
Excerpt: (§1) Female athymic nude mice (6 weeks old from Envigo Laboratories, Indianapolis, Ind., USA) were subcutaneously (s.c.) injected with 10^7 CHO (right flank) and CHO-hCXCR4 (left flank) or CHO-hCXCR4 cells alone (right flank). Once tumors became palpable (100=^3 [volume=0.5×long diameter×(short diameter)^2]), approximately 15-21 days post injection (p.i.), the animals were used for the experiments. Tumor-bearing CHO/CHO-hCXCR4 mice were i.v. injected with 10-15 MBq of the respective radiotracer in 100 μL of PBS. At 45 min p.i., mice were anaesthetized with Avertin and images were acquired using a Discovery 600 PET/TC scanner (GE healthcare) in 3D mode with measured attenuation correction (1 bed position, 6 min scanning time). Data were decay-corrected to the time of tracer injection. The reconstructed images including PET, CT and fused PET/TC images, were generated on the advantage workstation version (AW4.6 software, GE healthcare). Tissue activity (e.g. tumor, lung, liver, kidney) was quantified considering the volume of a region of interest (ROI) to determine maximum standardized uptake values (SUVmax). Non-specific tracer accumulation was investigated by co-injection of 8 mg/kg unlabeled peptide […]. CHO and CHO-hCXCR4 tumors were microscopically analyzed (H&E) and CXCR4 expression was evaluated through immunohistochemistry (IHC) (mab172, clone 44716, diluition 1:[…]&D system). The percentage of positive cells was evaluated in at least 5 areas (HPF 200× magnification) (Zeiss AxioScope light microscope). Statistical analysis was performed using the MedCalc 9.3.7.0 and Excel software. Unpaired Student t test was used for statistical analysis of ex vivo biodistribution and PET/TC images. The Spearman's correlation was used to measure the degree of association between SUV(max) and % CXCR4 IHC staining.

CHO-hCXCR4 xenografts = assay: in vivo; parameters: species or system mice; conditions: mouse; for tumor accumulation upon co-injection of unlabeled competitor (R54): 8 mg/kg
Excerpt: as §1

CXCR4 [1] = target: T1, CXCR4 (Homo sapiens, UniProt P61073); assay: competitive binding with [^125I]CXCL12 as radioligand on CXCR4-expressing CCRF-CEM cells; parameters: using CXCR4-expressing CCRF-CEM cells, human T lymphoblastic leukemia cells CXCR4 expressing; endogenous in cells; host or cells: CCRF-CEM (human T-cell leukemia), whole cells; conditions: [^125I]CXCL12 radioligand, means ±SD, read-out: hCXCR4 binding affinity IC50
Protocol: Specifically, according to the present invention, DOTA and NOTA-AMBHA-R54 were synthesized by combining solid and solution-phase peptide synthesis. Binding affinities (IC50) were determined using CXCR4-expressing CCRF-CEM cells, human T lymphoblastic leukemia cells CXCR4 expressing, with [^125I]CXCL12 as radioligand. Chinese hamster ovary (CHO) and CHO cells transduced with human CXCR4 (CHO-hCXCR4) grown in complete medium supplemented with 1 mg/mL G418 (a kind gift of Dr. David McDermott (NIAID, NIH, Bethesda, Md.).
Binding affinities to hCXCR4 were assessed with CCRF-CEM cells (1·10^6 cells/sample) in binding buffer (PBS containing 50 mM HEPES, 1 mM CaCl2, 5 mM MgCl2, 0.5% BSA, and 0.3 mM NaN3) and [^125I]CXCL12 (Perkin-Elmer, 2200 Ci/mmol) as radioligand. Cells were incubated with 100.000 cpm of the respective radioligand (approx. 0.1 nM) plus increasing concentrations (10^−11 to 10^−5 M) of the respective peptide of interest (n=3 per concentration, total sample volume 250 μL). After incubation at 4° C. for 60 min (CCRF-CEM cells) at room temperature (RT), samples were centrifuged (5 min, 450 g, Megafuge 1.0, Heraeus Thermo Scientific), the supernatant was carefully removed and pooled with the supernatants of two subsequently performed washing steps. […]

CXCR4 [2] = target: T1, CXCR4; conditions: competitive binding assay using anti-CXCR4 mAb 12G5; read-out: CXCR4 affinity IC50; cited from earlier work
[3] = target: T2, human CXCR4 (chemokine receptor 4) on CCRF-CEM cells (human, UniProt P61073 1-352); assay: displacement of [125I]CXCL12 from CXCR4-expressing CCRF-CEM cells, gamma counting
T2 construct: whole, on cells; also called hCXCR4
Protocol: Cells were incubated with 100.000 cpm of the respective radioligand (approx. 0.1 nM) plus increasing concentrations (10⁻¹¹ to 10⁻⁵ M) of the respective peptide of interest (n=3 per concentration, total sample volume 250 μL). After incubation at 4° C. for 60 min (CCRF-CEM cells) at room temperature (RT), samples were centrifuged (5 min, 450 g, Megafuge 1.0, Heraeus Thermo Scientific), the supernatant was carefully removed and pooled with the supernatants of two subsequently performed washing steps. Then, the amount of free (pooled supernatants) and bound radioligand (cell pellet) was quantified using a γ-counter and expressed in percent of total added activity. The half maximal inhibitory concentration (IC₅₀) values were calculated using GraphPad Prism software (GraphPad Software, Inc., California).
To assess the influence of modifications and chelator conjugation on R54, the CXCR4 affinity of Fmoc-AMBHA-R54 (see above the structure), NOTA-AMBHA-R54 and DOTA-AMBHA-R54 peptides as well as unmodified R54 were tested in competitive binding with [¹²⁵I]CXCL12 as radioligand on CXCR4-expressing CCRF-CEM cells. Each experiment was performed in triplicate, and results are means ±SD from a minimum of three separate experiments.

T1 sequence (P61073 whole entry): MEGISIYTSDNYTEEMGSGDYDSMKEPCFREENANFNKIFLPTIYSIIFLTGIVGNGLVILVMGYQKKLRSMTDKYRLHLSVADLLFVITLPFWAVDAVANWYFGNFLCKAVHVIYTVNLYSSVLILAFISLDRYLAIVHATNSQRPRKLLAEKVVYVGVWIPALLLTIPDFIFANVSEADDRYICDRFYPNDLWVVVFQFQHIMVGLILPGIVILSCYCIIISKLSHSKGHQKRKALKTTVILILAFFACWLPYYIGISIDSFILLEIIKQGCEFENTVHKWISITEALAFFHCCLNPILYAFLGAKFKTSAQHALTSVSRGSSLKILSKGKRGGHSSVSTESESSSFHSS
T2 sequence (P61073 whole entry): as above

Molecule: C[C@H](NC(=O)[C@H](CCCNC(=N)N)NC(=O)CCCCCNC(=O)c1ccc(CNC(=O)CN2CCN(CC(=O)O)CCN(CC(=O)O)CC2)cc1)C(=O)N[C@@H]1CSSC(C)(C)[C@@H](C(=O)O)NC(=O)[C@H](Cc2c[nH]cn2)NC(=O)[C@H](Cc2ccc3ccccc3c2)NC(=O)[C@H](CCCNC(=N)N)NC1=O [[^68Ga]NOTA-AMBHA-R54, metal not drawn] ({NOTA-4Amb-Ahx}-RA[dC]R[2Nal]H[Pen]-OH; disulfide 3-7)
excretion route (CHO-hCXCR4 tumor): exclusive renal excretion
tumor/non-tumor ratios (CHO-hCXCR4 tumor): high tumor/non-tumor ratios
SUV at 0.75 h (in vivo): 19.6 ± 2 SUV
maximum standardized uptake value (SUVmax) (CHO-hCXCR4 xenografts): 19.6 ± 2.00 g/mL
tumor accumulation upon co-injection of unlabeled competitor (R54) (CHO-hCXCR4 xenografts): reduced to background levels

IC50 (CXCR4 [1]): 20 ± 2 nM
Molecule: CC(=O)N[C@@H](CCCNC(=N)N)C(=O)N[C@@H](C)C(=O)N[C@@H]1CSSC(C)(C)[C@@H](C(=O)O)NC(=O)[C@H](Cc2c[nH]cn2)NC(=O)[C@H](Cc2ccc3ccccc3c2)NC(=O)[C@H](CCCNC(=N)N)NC1=O [Peptide R54, Ac-Arg-Ala-[DCys-Arg-Nal(2′)-His-Pen]COOH] (Ac-RA[dC]R[2Nal]H[Pen]-OH; disulfide 3-7)

Molecule: CC(=O)N[C@@H](CCCNC(=N)N)C(=O)N[C@@H](C)C(=O)N[C@@H]1CSSC(C)(C)[C@@H](C(=O)O)NC(=O)[C@H](Cc2cnc[nH]2)NC(=O)[C@H](Cc2ccc3ccccc3c2)NC(=O)[C@H](CCCNC(=N)N)NC1=O [Peptide R54, Ac-Arg-Ala-[DCys-Arg-Nal(2′)-His-Pen]COOH] (Ac-RA[dC]R[2Nal]H[Pen]-OH; disulfide 3-7)
IC50 (CXCR4 [2]): 1.5 ± 0.5 nM

Molecule: C[C@H](NC(=O)[C@H](CCCNC(=N)N)NC(=O)CCCCCNC(=O)c1ccc(CNC(=O)CN2CCN(CC(=O)O)CCN(CC(=O)O)CCN(CC(=O)O)CC2)cc1)C(=O)N[C@@H]1CSSC(C)(C)[C@@H](C(=O)O)NC(=O)[C@H](Cc2c[nH]cn2)NC(=O)[C@H](Cc2ccc3ccccc3c2)NC(=O)[C@H](CCCNC(=N)N)NC1=O [[^68Ga]DOTA-AMBHA-R54, metal not drawn] ({DOTA-4Amb-Ahx}-RA[dC]R[2Nal]H[Pen]-OH; disulfide 3-7)
tumor/non-tumor ratios (CHO-hCXCR4 tumor): high tumor/non-tumor ratios
SUV at 0.75 h (in vivo): 2.02 ± 0.14 SUV
maximum standardized uptake value (SUVmax) (CHO-hCXCR4 xenografts): 2.02 ± 0.14 g/mL
tumor accumulation upon co-injection of unlabeled competitor (R54) (CHO-hCXCR4 xenografts): reduced to background levels

IC50 [3]: 36 nM
Molecule: {NOTA-AMBHA}-RA[dC]R[2Nal]H[Pen]-OH (disulfide 3-7, also called NOTA-Ahx-R54; NOTA-R54) [NOTA-AMBHA-R54]

IC50 [3]: 107 nM
Molecule: {DOTA-AMBHA}-RA[dC]R[2Nal]H[Pen]-OH (disulfide 3-7, also called DOTA-Ahx-R54; DOTA-R54) [DOTA-AMBHA-R54]

IC50 [3]: 38.5 nM
Molecule: {Fmoc-AMBHA}-RA[dC]R[2Nal]H[Pen]-OH (disulfide 3-7) [Fmoc-AMBHA-R54]
